Results from US11332546B2, “Protease inhibitory antibodies and methods of use thereof” (The Regents of The University of California, priority 2019, dated 2022).

B1: IgG B3B12: anti-BACE1 inhibitory Fab B3B12 converted into IgG format (antibody, V domains shown)
VH: EVQLVESGGGLVQPGGSLRLSCAASGFNIPYSSMHWVRQAPGKGLEWVASISSYSSSTSYADSVKGRFTISADTSKNTAYLQMNSLRAEDTAVYYCARYICGHRWRDFDMWRARTGVNYAMDYWGQGTLVTVSSAS
VL: DIQMTQSPSSLSASVGDRVTITCRASQSVGTYLNWYQQKPGKAPKLLIYATSNLRSGVPSRFSGSGSGTDFTLTISSLQPEDFATYYCQQSYSIPRFTFGPGTKLEIKR

What was measured:
cdMMP-12 mutant D4 = molecular target: T1, cdMMP-12 mutant D4 (Homo sapiens, UniProt P39900, A167E/A173P/A252Q/H206S/I245T/K233R/M156E/N119Q/N126H/R135E/T215V/V161I/Y113D/Y132K); assay: Bio-layer interferometry (BLItz) on cdMMP-12 D4; format: binding; details: read-out: Affinity on cdMMP-12 D4
T1 construct: hexahistidine (C); made in house; host or cells: E. coli BL21, pET32b (cytoplasmic, soluble fraction)
T1 sequence (P39900 106-263 Y113D/N119Q/N126H/Y132K/R135E/M156E/V161I/A167E/A173P/H206S/T215V/K233R/I245T/A252Q): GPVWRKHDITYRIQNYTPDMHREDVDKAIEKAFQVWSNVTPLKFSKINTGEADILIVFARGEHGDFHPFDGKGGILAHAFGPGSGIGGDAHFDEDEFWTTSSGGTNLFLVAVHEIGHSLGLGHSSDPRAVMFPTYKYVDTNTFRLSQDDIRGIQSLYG
Procedure: ELISA and binding kinetics measurement Purified cdMMP-9, cdMMP-12 D4/wt, and cdMMP-14 were biotinylated by using EZ-Link Sulfo-NHS-LC kit (Thermo Fisher). On streptavidin coated ELISA plates, 5 μg/mL biotinylated cdMMPs were immobilized and incubated with two-fold serially diluted purified Fabs. Bound Fabs were detected with anti-Fab-HRP (Sigma-Aldrich), and signals were developed by TMB substrate (Thermo Scientific) and measured using a microplate reader (BioTek). In competitive ELISA, 500 nM Fabs of interest were mixed with 0.01-10 μM GM6001 or 0.8-200 μM nTIMP-2 for 30 min, then transferred to ELISA plates coated with cdMMP-12 D4/wt for incubation 15 min at room temperature. Bound Fabs were detected using anti-Fab-HRP. For bio-layer interferometry (using ForteBio BLItz), biotinylated cdMMP-12 D4/wt was loaded onto streptavidin biosensors. After washing to establish baselines, 50, 100, or 200 nM of Fabs were associated with immobilized cdMMP-12 D4/wt for 200 sec, then dissociated into 50 mM HEPES, 150 mM NaCl pH 7.5 for 120 sec. Averages of measured kon and koff values were determined for KD calculations.

BACE2 = molecular target: T2, BACE2 (Homo sapiens, UniProt Q9Y5Z0); assay: FRET inhibition selectivity test, BACE2; format: biochemical; details: IgG
T2 sequence (Q9Y5Z0 63-518): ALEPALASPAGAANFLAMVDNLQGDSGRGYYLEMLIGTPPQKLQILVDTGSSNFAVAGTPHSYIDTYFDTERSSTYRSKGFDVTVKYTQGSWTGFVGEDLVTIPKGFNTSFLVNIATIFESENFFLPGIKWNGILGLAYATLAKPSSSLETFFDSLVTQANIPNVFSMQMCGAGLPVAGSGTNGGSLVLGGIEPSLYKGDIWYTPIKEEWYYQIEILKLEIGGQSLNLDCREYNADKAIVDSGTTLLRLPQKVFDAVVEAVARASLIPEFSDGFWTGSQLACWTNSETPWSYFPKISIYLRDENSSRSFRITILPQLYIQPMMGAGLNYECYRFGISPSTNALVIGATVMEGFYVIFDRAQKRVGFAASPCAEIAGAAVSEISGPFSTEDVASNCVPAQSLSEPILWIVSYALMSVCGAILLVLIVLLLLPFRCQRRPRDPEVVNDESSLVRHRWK
Procedure: (§1) For inhibition tests, 1 μM Fabs were 2-fold serially diluted into protease specific assay buffer and incubated with 1-10 nM proteases for 30 min at room temperature. […] Inhibition percentages at given concentrations were calculated by comparing the initial reaction rates in the presence or absence of inhibitor. IC50 was determined as the concentration that achieved 50% inhibition, and KI values were calculated using KI=IC50/(S/Km+1). Vmax and Km at various Fab concentrations were measured to determine the inhibition type. FRET inhibition assays were also used for selectivity tests of isolated Fabs with the relevant proteases.

BACE1 [1] = molecular target: T3, BACE1 (Homo sapiens, UniProt P56817); assay: Binding kinetics by biolayer interferometry, Fabs/IgGs on BACE1; details: IgG format
T3 construct: human β-secretase 1 (BACE1, residue 46-457); made in house; host or cells: HEK293F (secreted, protein A purified)
T3 sequence (P56817 46-457): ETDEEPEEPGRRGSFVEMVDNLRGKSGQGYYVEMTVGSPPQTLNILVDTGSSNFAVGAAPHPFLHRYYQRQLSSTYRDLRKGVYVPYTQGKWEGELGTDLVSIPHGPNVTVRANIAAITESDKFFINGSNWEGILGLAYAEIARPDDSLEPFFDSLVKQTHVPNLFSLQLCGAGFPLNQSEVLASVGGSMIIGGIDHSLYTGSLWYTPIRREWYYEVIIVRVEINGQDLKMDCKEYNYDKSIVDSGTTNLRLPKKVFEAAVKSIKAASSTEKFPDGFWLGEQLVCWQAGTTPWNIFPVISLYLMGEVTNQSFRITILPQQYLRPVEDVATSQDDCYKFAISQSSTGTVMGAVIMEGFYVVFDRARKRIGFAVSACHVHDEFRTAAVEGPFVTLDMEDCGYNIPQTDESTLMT
Procedure: Binding kinetics of produced antibodies towards associated protease targets were analyzed by using biolayer interferometry (ForteBio). For Fabs, biotinylated proteases were immobilized on streptavidin biosensors, and Fab binding to the sensors in absence of protease was monitored as backgrounds. For IgGs, protein A sensors were used and protease bindings without IgG were checked as backgrounds. kon and koff were determined for KD calculations. […] Fab in vitro stability was tested by incubating 1 μM Fab with 1 μM of the respective protease in the assay buffer for 12 hours and the samples were analyzed by SDS-PAGE.

BACE1 [2] = molecular target: T3, BACE1; assay: FRET peptide inhibition assay, BACE1 (M-2420); format: biochemical; details: IgG format; BACE-1, FRET peptide
Procedure: as §1

| Molecule | Kd (cdMMP-12 mutant D4) | Inhibition of BACE2 (selectivity) (BACE2) | Binding Affinity KD (associated IgG, in parentheses) (BACE1 [1]) | Inhibition Potency KI (associated IgG, in parentheses) (BACE1 [2]) |
| --- | --- | --- | --- | --- |
| nTIMP-2: N-terminal domain of tissue inhibitor of metalloproteinases 2, endogenous inhibitor of MMPs | 290 nM | – | – | – |
| nTIMP-1: N-terminal domain of tissue inhibitor of metalloproteinases 1, endogenous inhibitor of MMPs | 500 nM | – | – | – |
| B1 | – | but not BACE2 | 7 nM | 13 nM |
